Residue numbers refer to the chain shown, from its start. Names and notes keep the numbering of the source.

The chains are these.
B1: CE115HA000/GLS3000 S56Y one-arm antibody (antibody, human IgG1, kappa, L234A L235A, N297A, name in Kabat numbering)
heavy: QVQLVESGGGVVQPGRSLRLSCAASGFTFSNAWMHWVRQAPGKGLEWVAQIKAKSNNYATYYAESVKGRFTISRDDSKNSLYLQMNSLKTEDTAVYYCRYVHYGAYYGVDAWGQGTTVTVSSASTKGPSVFPLAPSSKSTSGGTAALGCLVKDYFPEPVTVSWNSGALTSGVHTFPAVLQSSGLYSLSSVVTVPSSSLGTQTYICNVNHKPSNTKVDKKVEPKSCDKTHTCPPCPAPEAAGGPSVFLFPPKPKDTLMISRTPEVTCVVVDVSHEDPEVKFNWYVDGVEVHNAKTKPREEQYASTYRVVSVLTVLHQDWLNGKEYKCKVSNKALPAPIEKTISKAKGQPREPQVYTLPPSRCELTKNQVSLSCAVKGFYPSDIAVEWESNGQPENNYKTTPPVLDSDGSFFLVSKLTVDKSRWQQGNVFSCSVMHEALHNHYTQKSLSLSPDYKDDDDK
chain: EPKSSDKTHTCPPCPAPELLGGPSVFLFPPKPKDTLMISRTPEVTCVVVDVSHEDPEVKFNWYVDGVEVHNAKTKPREEQYNSTYRVVSVLTVLHQDWLNGKEYKCKVSNKALPAPIEKTISKAKGQPREPQVCTLPPSRDELTKNQVSLWCLVKGFYPSDIAVEWESNGQPENNYKTTPPVLDSDGSFFLYSKLTVDKSRWQQGNVFSCSVMHEALHNRYTQKSLSLSP
light: DIVMTQSPLSLPVTPGEPASISCRSSQSLVHSNRNTYLHWYQQKPGQAPRLLIYKVSNRFYGVPDRFSGSGSGTDFTLKISRVEAEDVGVYYCGQGTQVPYTFGQGTKLEIKRTVAAPSVFIFPPSDEQLKSGTASVVCLLNNFYPREAKVQWKVDNALQSGNSQESVTEQDSKDSTYSLSSTLTLSKADYEKHKVYACEVTHQGLSSPVTKSFNRGEC
notes: one-arm IgG1
B2: CE115HA000/GLS3000 Y32F one-arm antibody (antibody, human IgG1, kappa, L234A L235A, N297A, name in Kabat numbering)
heavy: B1 heavy
chain: B1 chain
light: B1 light with Y37F, Y61S
notes: one-arm IgG1
B3: CE115HA000/GLS3000 V94L one-arm antibody (antibody, human IgG1, kappa, L234A L235A, N297A, name in Kabat numbering)
heavy: B1 heavy
chain: B1 chain
light: B1 light with Y61S, V99L
notes: one-arm IgG1
B4: CE115HA000/GLS3000 V51E one-arm antibody (antibody, human IgG1, kappa, L234A L235A, N297A, name in Kabat numbering)
heavy: B1 heavy
chain: B1 chain
light: B1 light with V56E, Y61S
notes: one-arm IgG1
B5: CE115HA000/GLS3000 T31P one-arm antibody (antibody, human IgG1, kappa, L234A L235A, N297A, name in Kabat numbering)
heavy: B1 heavy
chain: B1 chain
light: B1 light with T36P, Y61S
notes: one-arm IgG1
B6: CE115HA000/GLS3000 V94N one-arm antibody (antibody, human IgG1, kappa, L234A L235A, N297A, name in Kabat numbering)
heavy: B1 heavy
chain: B1 chain
light: B1 light with Y61S, V99N
notes: one-arm IgG1
B7: CE115HA000/GLS3000 V94M one-arm antibody (antibody, human IgG1, kappa, L234A L235A, N297A, name in Kabat numbering)
heavy: B1 heavy
chain: B1 chain
light: B1 light with Y61S, V99M
notes: one-arm IgG1
B8: CE115HA000/GLS3000 V51D one-arm antibody (antibody, human IgG1, kappa, L234A L235A, N297A, name in Kabat numbering)
heavy: B1 heavy
chain: B1 chain
light: B1 light with V56D, Y61S
notes: one-arm IgG1
B9: CE115HA000/GLS3000 T92L one-arm antibody (antibody, human IgG1, kappa, L234A L235A, N297A, name in Kabat numbering)
heavy: B1 heavy
chain: B1 chain
light: B1 light with Y61S, T97L
notes: one-arm IgG1
B10: CE115HA000/GLS3000 Y96E one-arm antibody (antibody, human IgG1, kappa, L234A L235A, N297A, name in Kabat numbering)
heavy: B1 heavy
chain: B1 chain
light: B1 light with Y61S, Y101E
notes: one-arm IgG1
B11: CE115HA000/GLS3000 V94F one-arm antibody (antibody, human IgG1, kappa, L234A L235A, N297A, name in Kabat numbering)
heavy: B1 heavy
chain: B1 chain
light: B1 light with Y61S, V99F
notes: one-arm IgG1
B12: CE115HA000/GLS3000 T31I one-arm antibody (antibody, human IgG1, kappa, L234A L235A, N297A, name in Kabat numbering)
heavy: B1 heavy
chain: B1 chain
light: B1 light with T36I, Y61S
notes: one-arm IgG1
B13: CE115HA000/GLS3000 V94I one-arm antibody (antibody, human IgG1, kappa, L234A L235A, N297A, name in Kabat numbering)
heavy: B1 heavy
chain: B1 chain
light: B1 light with Y61S, V99I
notes: one-arm IgG1
B14: CE115HA000/GLS3000 T31D one-arm antibody (antibody, human IgG1, kappa, L234A L235A, N297A, name in Kabat numbering)
heavy: B1 heavy
chain: B1 chain
light: B1 light with T36D, Y61S
notes: one-arm IgG1
B15: CE115HA000/GLS3000 T31E one-arm antibody (antibody, human IgG1, kappa, L234A L235A, N297A, name in Kabat numbering)
heavy: B1 heavy
chain: B1 chain
light: B1 light with T36E, Y61S
notes: one-arm IgG1
B16: CE115HA000/GLS3000 T92D one-arm antibody (antibody, human IgG1, kappa, L234A L235A, N297A, name in Kabat numbering)
heavy: B1 heavy
chain: B1 chain
light: B1 light with Y61S, T97D
notes: one-arm IgG1
B17: CE115HA000/GLS3000 V94G one-arm antibody (antibody, human IgG1, kappa, L234A L235A, N297A, name in Kabat numbering)
heavy: B1 heavy
chain: B1 chain
light: B1 light with Y61S, V99G
notes: one-arm IgG1
B18: CE115HA000/GLS3000 T31K one-arm antibody (antibody, human IgG1, kappa, L234A L235A, N297A, name in Kabat numbering)
heavy: B1 heavy
chain: B1 chain
light: B1 light with T36K, Y61S
notes: one-arm IgG1
B19: CE115HA000/GLS3000 V51P one-arm antibody (antibody, human IgG1, kappa, L234A L235A, N297A, name in Kabat numbering)
heavy: B1 heavy
chain: B1 chain
light: B1 light with V56P, Y61S
notes: one-arm IgG1
B20: CE115HA000/GLS3000 V51I one-arm antibody (antibody, human IgG1, kappa, L234A L235A, N297A, name in Kabat numbering)
heavy: B1 heavy
chain: B1 chain
light: B1 light with V56I, Y61S
notes: one-arm IgG1
B21: CE115HA000/GLS3000 V94D one-arm antibody (antibody, human IgG1, kappa, L234A L235A, N297A, name in Kabat numbering)
heavy: B1 heavy
chain: B1 chain
light: B1 light with Y61S, V99D
notes: one-arm IgG1
B22: CE115HA000/GLS3000 V94K one-arm antibody (antibody, human IgG1, kappa, L234A L235A, N297A, name in Kabat numbering)
heavy: B1 heavy
chain: B1 chain
light: B1 light with Y61S, V99K
notes: one-arm IgG1
B23: CE115HA000/GLS3000 T31N one-arm antibody (antibody, human IgG1, kappa, L234A L235A, N297A, name in Kabat numbering)
heavy: B1 heavy
chain: B1 chain
light: B1 light with T36N, Y61S
notes: one-arm IgG1
B24: CE115HA000/GLS3000 V51G one-arm antibody (antibody, human IgG1, kappa, L234A L235A, N297A, name in Kabat numbering)
heavy: B1 heavy
chain: B1 chain
light: B1 light with V56G, Y61S
notes: one-arm IgG1
B25: CE115HA000/GLS3000 Y96D one-arm antibody (antibody, human IgG1, kappa, L234A L235A, N297A, name in Kabat numbering)
heavy: B1 heavy
chain: B1 chain
light: B1 light with Y61S, Y101D
notes: one-arm IgG1
B26: CE115HA000/GLS3000 V94H one-arm antibody (antibody, human IgG1, kappa, L234A L235A, N297A, name in Kabat numbering)
heavy: B1 heavy
chain: B1 chain
light: B1 light with Y61S, V99H
notes: one-arm IgG1
B27: CE115HA000/GLS3000 T92I one-arm antibody (antibody, human IgG1, kappa, L234A L235A, N297A, name in Kabat numbering)
heavy: B1 heavy
chain: B1 chain
light: B1 light with Y61S, T97I
notes: one-arm IgG1
B28: CE115HA000/GLS3000 V94A one-arm antibody (antibody, human IgG1, kappa, L234A L235A, N297A, name in Kabat numbering)
heavy: B1 heavy
chain: B1 chain
light: B1 light with Y61S, V99A
notes: one-arm IgG1
B29: CE115HA000/GLS3000 Y32D one-arm antibody (antibody, human IgG1, kappa, L234A L235A, N297A, name in Kabat numbering)
heavy: B1 heavy
chain: B1 chain
light: B1 light with Y37D, Y61S
notes: one-arm IgG1
B30: CE115HA000/GLS3000 T92A one-arm antibody (antibody, human IgG1, kappa, L234A L235A, N297A, name in Kabat numbering)
heavy: B1 heavy
chain: B1 chain
light: B1 light with Y61S, T97A
notes: one-arm IgG1
B31: CE115HA000/GLS3000 Y32P one-arm antibody (antibody, human IgG1, kappa, L234A L235A, N297A, name in Kabat numbering)
heavy: B1 heavy
chain: B1 chain
light: B1 light with Y37P, Y61S
notes: one-arm IgG1
B32: CE115HA000/GLS3000 V94E one-arm antibody (antibody, human IgG1, kappa, L234A L235A, N297A, name in Kabat numbering)
heavy: B1 heavy
chain: B1 chain
light: B1 light with Y61S, V99E
notes: one-arm IgG1
B33: CE115HA000/GLS3000 T92E one-arm antibody (antibody, human IgG1, kappa, L234A L235A, N297A, name in Kabat numbering)
heavy: B1 heavy
chain: B1 chain
light: B1 light with Y61S, T97E
notes: one-arm IgG1

The test deals with T1, CD3 epsilon homodimer protein (UniProt P07766 23-126).
T1 construct: also called CD3 (CD3 epsilon)
T1 sequence (P07766 23-126): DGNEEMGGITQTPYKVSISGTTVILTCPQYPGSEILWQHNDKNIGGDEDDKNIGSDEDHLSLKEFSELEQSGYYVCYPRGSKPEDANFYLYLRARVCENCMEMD
As to the kind of experiment: SPR (Biacore T200), CD3e homodimer on CM4 chip, antibody as analyte; KD ratio vs unaltered GLS3000.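 Note: CD3 epsilon homodimer amine-coupled to the sensor surface, antibodies injected as analyte at 25 °C with HBS-EP+ running buffer.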
As for B1, the “KD ratio to GLS3000” value was determined as 1.1 ratio.
With B2, the “KD ratio to GLS3000” value amounted to 4.51 ratio.
Next, B3: 3.06 ratio; B4: 0.88 ratio; B5: 10.8 ratio.
Turning to B6, the “KD ratio to GLS3000” value worked out at 0.96 ratio.
In the case of B7, the “KD ratio to GLS3000” value was found to be 2.74 ratio.
Under B8 stands 1.5 ratio; under B9, 1.61 ratio; under B10, 46.8 ratio.
Next, B11: 1.75 ratio.
In the case of B12, the “KD ratio to GLS3000” value is 1.1 ratio.
Under B13 stands 1.46 ratio; under B14, 30.9 ratio; under B15, 1.59 ratio.
Take B16: the “KD ratio to GLS3000” value was determined as 11.2 ratio.
Turning to B17, the “KD ratio to GLS3000” value was 2.59 ratio.
B18: the “KD ratio to GLS3000” value was 0.88 ratio.
With B19, the “KD ratio to GLS3000” value amounted to 6 ratio.
Next, B20: 0.69 ratio.
For the molecule B21, the “KD ratio to GLS3000” value is 1.05 ratio.
Next, B22: 0.91 ratio.
Next, B23: 4.46 ratio.
As to B24, the “KD ratio to GLS3000” value is 0.83 ratio.
Next, B25: 40.9 ratio.
On to B26, for which the “KD ratio to GLS3000” value was 1.16 ratio.
Take B27: the “KD ratio to GLS3000” value stood at 1.91 ratio.
With B28, the “KD ratio to GLS3000” value stood at 1.05 ratio.
Under B29 stands 25.9 ratio; under B30, 1.35 ratio.
As to B31, the “KD ratio to GLS3000” value stood at 62 ratio.
Next, B32: 1.18 ratio; B33: 19.6 ratio.

Source of the values: patent US20240270846A1 (published 2024).
